Test results as given in publication PMC5161677.

What was measured:
DnaA R357A = target: T1, DnaA R357A (Caulobacter crescentus, UniProt B8GWW5 1-490, R357A); assay: EMSA
T1 sequence: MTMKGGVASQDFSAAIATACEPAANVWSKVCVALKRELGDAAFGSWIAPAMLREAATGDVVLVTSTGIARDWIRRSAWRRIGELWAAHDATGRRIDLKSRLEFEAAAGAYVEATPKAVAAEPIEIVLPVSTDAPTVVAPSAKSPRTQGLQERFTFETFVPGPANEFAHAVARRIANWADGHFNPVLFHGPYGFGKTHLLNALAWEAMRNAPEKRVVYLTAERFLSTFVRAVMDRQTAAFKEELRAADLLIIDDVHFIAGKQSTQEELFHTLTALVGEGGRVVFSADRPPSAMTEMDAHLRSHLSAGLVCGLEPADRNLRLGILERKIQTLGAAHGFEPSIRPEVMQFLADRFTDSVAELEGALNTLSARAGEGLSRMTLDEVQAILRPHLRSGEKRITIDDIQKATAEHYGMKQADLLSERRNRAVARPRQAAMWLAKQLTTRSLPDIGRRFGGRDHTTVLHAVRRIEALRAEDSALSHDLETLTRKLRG

DnaA = target: T2, DnaA (Caulobacter crescentus, UniProt B8GWW5 1-490); assay: EMSA
T2 sequence: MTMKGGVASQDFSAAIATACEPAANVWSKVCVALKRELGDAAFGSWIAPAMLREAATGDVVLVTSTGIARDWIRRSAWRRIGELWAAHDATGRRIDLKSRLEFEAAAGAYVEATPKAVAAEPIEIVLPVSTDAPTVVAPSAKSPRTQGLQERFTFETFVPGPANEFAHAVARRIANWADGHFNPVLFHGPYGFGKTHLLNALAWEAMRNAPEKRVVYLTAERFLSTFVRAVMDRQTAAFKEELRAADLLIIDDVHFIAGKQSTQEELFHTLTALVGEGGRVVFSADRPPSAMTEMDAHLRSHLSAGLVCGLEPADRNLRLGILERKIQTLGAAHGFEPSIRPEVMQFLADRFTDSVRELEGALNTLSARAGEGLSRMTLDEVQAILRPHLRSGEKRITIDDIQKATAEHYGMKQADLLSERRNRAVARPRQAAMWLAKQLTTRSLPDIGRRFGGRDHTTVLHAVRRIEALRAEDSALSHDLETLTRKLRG

B1: G1 DnaA box dsDNA (dsDNA)
DNA 1: AACGGATGATCCACAGGAGAG
DNA 2: CTCTCCTGTGGATCATCCGTT
- binding result (DnaA R357A): binds
- binding result (DnaA): binds
